{"source": "the DeepSol protein solubility set"}
{"test": "soluble on expression in E. coli; label from the status in PepcDB or PDB records"}
{"sequence": "MSLDEAWKSLEKLRGVKLLPGNKVLLKRGEVFNGELEITGQGIPEDRIYIDAYGDDERKPCIVGYDTSLYAARICNSDYITMQNLEIVNTGRQPLPYRSGLKIECMDYGVSQNIVVNNVTVRDVNGSLVKEKGGGCGIYIVNGGEKKISTFNRLTIENCHILRCTRNAMIWAAYSDRQNWHPSKHTVIRGNLIEEVPGDGIVPIGCDSTLIEYNVMRDCPDMLPDTEAAAGIWPWSCDNTLVQFNEVSGHKAPWDAQGFDSDWNCRGTVIQYNYSHDNYGGLVLVCNDGTADASFNVGNLGTIVRYNVSIGDGVRPEPTRAGMFSPAVHLAGPVKDSRITRNIIHVNRKPAADIDRTMITLDSWGGYPDSTFISGNIFYAPESSRFQLTESTHNFFEGNYYLGRFEKLPEDGKACQSAEIYQKEVLAKDENGYQGLALLMDTVEVTGVKGVFVNKEAIENFFSRLEKEGHHHHHH", "soluble on expression in E. coli": "not soluble"}
{"sequence": "MSLDGEQTTREPVLKAMFLADTHLLGEFLGHWLDKLRREWQMERAFQTALWLLQPEVVFILGDIFDEGKWSTPEAWADDVERFQKMFRHPSHVQLKVVAGNHDIGFHYEMNTYKVERFEKVFSSERLFSWKGINFVMVNSVALNGDGCGICSETEAELIEVSHRLNCSREARGSSRCGPGPLLPTSAPVLLQHYPLYRRSDANCSGEDAAPAEERDIPFKENYDVLSREASQKLLWWLQPRLVLSGHTHSACEVHHGGRVPELSVPSFSWRNRNNPSFIMGSITPTDYTLSKCYLPREEGHHHHHH", "soluble on expression in E. coli": "not soluble"}
{"sequence": "MSLDIFIMDPNEKLTSERLKDFLDRHAARLSRYERLMNMYMGKHPILYEKEKELGKPNNRLVVNFAKYIVDMLNGYFIGIPVKTIHENKEVAAKMKEIAKRNSQNDNNAELSKMCSIYGHAYEFLYQDENAHTRVTYVDPREAFVIYDNTVAQEPLYGVRVLKDDKERPYGTIYSRYDERDFFTSDDGELVIEEKGQEHFFGDVPLIEYVENNERQSAFESVETLINAYNKAISEKANDVDYFADAYLVILGAELDEETIKQIRDNRVINLKSGDGQKIVLEFLDKPNADTTQENLIERLERLIFQISMVANISDEKFGTSSGIALKYKLQPMENIALMKERKFNNGMIRRFKMMFNIPTNFGVDPDEYLNIEYVFTRNIPNNILEEAETAEKLAGITSRQTQLSVLSVVDNVQNELDRIQKEKEGEEINSFNRDMNSPFFGSGELDDGQEEEGHHHHHH", "soluble on expression in E. coli": "not soluble"}
{"sequence": "MSLDIKTLKGFKDYLPKDSLIRIHIVRQIFSVLNSYNFDLIDTPVLEYSDLLLKKSGDETEKQIYRFKDNGGRDVSMRFDLTVPFARFVATNISALKLPFRRSQFGKVFRGENSQKGRYREFMQFDFDIVGEDTFRGDAEILSVVYYGLEEIFLNFIEGINKKFIIHYSHIGILNSFFEKLGLKEKSIFILRNIDKIDKIGIDKVKEALLLEIEKEAVDSILSLVSLQGTFKDKIQALKSILGDNESIKRVEDVFQHLSLLKIQDSFNLNLKISRGLDYYTGIVFESEVFGSNMGSVCSGGRYDNLVSSFSNSIQKISGVGGSFGVDRIKDIIDLEKFSYIKIFVTKARSKVLIVNLDSALQNYYYELATRFRNHDYSKVKNISCEVYFKNKNGKNIKEQIEYALSKEIRFLVFVGQEEYKENKMKVRDLTKKEELLLSFEESINLIKCNEKLEGHHHHHH", "soluble on expression in E. coli": "soluble"}
{"sequence": "MSLDLEYTPEQQQLRAEIRATLQTVMTPERVAAVSEQMDGGPAVRECVRALAAANLLGVGWPKEYGGRGFSAIEQFIFAEEARRVSAPIPLVTLNTAGPTLMHYGTDEQKRRFLPAILDGTVEFAIGYSEPGAGSDLASVHTTAVRVGDEYVINGQKMFTSGAAYADYIWLAVRTDPDAKKHKGISILIVPTSSPGFSWQPLHTMPGISTFYTFYDDVRVPVSALVGAENQGWQLITTQLNFERAALGNLGALEPLFDKTLDWALSTELDGGRVIDQPWVRSALARVEAQVAAYKLVNLRVNAAMTKGALNMGEASAAKVFGTELTQQVARELLEVLDGNGVRRGAEAPLRGALESAYRQAVINTFGGGANEIQRDIIAMAALGMPRAEGHHHHHH", "soluble on expression in E. coli": "not soluble"}
{"sequence": "MSLDLPPGVVALVNGTRITQEQLDRAIAQSGAQANPQVAQALKQQLIARELFRQQAAKNPAYDKLPAVKQAMQEAHDAVITQAWLKDNIKPAPITEEQVKARYDAIVASLGDKEYKARVIQLGDDVTAAQVLAQLKQGGDFAKLAQQYSTAPNKVRGGDMDWVSFKVPVEEGKTQNLPLPLAREIAALGIGAASTAPVEVGSQRYIVKVEAARPTQVPGYDTVRPAIRQALETAELERVTVQVVGGLLKAAKIVQEGHHHHHH", "soluble on expression in E. coli": "soluble"}
{"sequence": "MSLDLPSRPPAPPEGVIGRRIRYADALEPEREEWFVAGTELAEVTAPEAPTPRIETPADGMIIALDPDIPARNQKLILRARPARAGMSFLLDGRPVGPAETPVKWPPEPGGHVLKLMDDRGRTLDLVKFQVRGMREGHHHHHH", "soluble on expression in E. coli": "soluble"}
{"sequence": "MSLDLRARVREELERLKREGLYISPKVLEAPQEPVTRVEGREVVNLASNNYLGFANHPYLKEKARQYLEKWGAGSGAVRTIAGTFTYHVELEEALARFKGTESALVLQSGFTANQGVLGALLKEGDVVFSDELNHASIIDGLRLTKATRLVFRHADVAHLEELLKAHDTDGLKLIVTDGVFSMDGDIAPLDKIVPLAKKYKAVVYVDDAHGSGVLGEKGKGTVHHFGFHQDPDVVQVATLSKAWAGIGGYAAGARELKDLLINKARPFLFSTSHPPAVVGALLGALELIEKEPERVERLWENTRYFKRELARLGYDTLGSQTPITPVLFGEAPLAFEASRLLLEEGVFAVGIGFPTVPRGKARIRNIVTAAHTKEMLDKALEAYEKVGKRLGIIR", "soluble on expression in E. coli": "soluble"}
{"sequence": "MSLDNLALRMRPKTIDQVIGQEHLVGPGKIIRRMVEANRLSSMILYGPPGIGKTSIASAIAGTTKYAFRTFNATVDSKKRLQEISEEAKFSGGLVLLLDEIHRLDKTKQDFLLPLLESGLVIMIGATTENPFFSVTPAIRSRVQIFELEPLSNQDVKEALQIALSNPERGFDFPIELDEDALDFIATSTNGDLRSAFNSLDLAVLSTPENDEGIRHITLDIMENSLQRSYITMDKDGDGHYDVLSALQKSIRGSDVDASLHYTARLIEAGDLPSLARRLTVIAYEDIGLANPEAQIHTVTALDAAQKIGFPEARILIANVVIDLALSPKSNSAYVAMDKALADLKTSGHLPIPRHLRDGHYSGSKELGNAQDYLYPHNYPGNWVKQDYLPEKIRNHHYFQAEDTGKYERALAQRKEAIDRLREGHHHHHH", "soluble on expression in E. coli": "soluble"}
{"sequence": "MSLDQPLTFYGLKSMSGAFASYGKYADMGSRLAIAEHPQLLGHPLKYKVIDTEGNAGKAVRKVQEAIGQDGARFFQGCTLSSSALAVSKEIHKAGGVFMTPVGADEITGKDCNASTFRWSVPTYGAIRETLVPMSRQLPQAKRWYTITPQYVFGDALLDNARKVFAELGVEHIGNSYHSLQEQEFSGYLTNAIAAKPDVLVLLNFGSQASNALRQAVNFGIKDRMKVLMVWSAGLDQFQELGSDVLEGVYLGAQYWHQVDTPLNKLLVAATRKAYGINPNYPLAADYIGTKVMLEAIVKAGSLDGAAVSAALQGMRFQGPTGEELIRPGDHQVLKDYYLLRGKPQGQMRDEGHHHHHH", "soluble on expression in E. coli": "not soluble"}
{"sequence": "MSLDSRTELKEIAGVAKRLTLLYVEDDIPTRRFLKRRLEEIFGVVAEAANGEEGLKRFLQGGIDLVISDNIMPFMDGIEMIREIRRVDTRLPIILTTAFIDTDYLMEAINLGVTQFVAKPISMDLLHNAIQMAIQRVVLDNLTRKAKEQEIELLRFQDRYHSLQQESARRKERNLIKNDHYLQTIQGKEGEEWVLDALHRSLEILSGDSYSVRGLDEGRALLFIVDGMGKGLSASVTTTLSIAFLNYLIDERIAQGARVELGSLVGDYLRFIQKELLEEEIISAGFYDFDFKRERLSYITFGMPSMLWVNSQGECERIKSSSPPLMKYSLPPLPQEICIQDLEKILLYSDGLNEALLDEETIYGEILEEELLWNRFLSEMNRRFRSRVKDVDDDITAFWVRRVPQNPSASRSYEIKSSLLEVHRLSDTIEEGLESFGIFDLEASTRFMTALTEMLMNAYEHGSLGVERLTKDQLIQEGSYDEYLAKESKPHRRIRVRLRRYEEGEATLLTCEVEDEGRGFDTQTLLQNLRNEPETLTSGRGIRLTKGLVDHLCFKKGGRVSQFTVVAREALFGNEGHHHHHH", "soluble on expression in E. coli": "not soluble"}
{"sequence": "MSLDTPTHLTLMVSGTAKMIYLPATLAQRLGYFRDEGLDVELLSQPAGVDAESELLTGYAQGVVGFYDHTIDLQTKGKEVRAIVVFSHVPGEAEVVSTRLPATVQSLHDLRGRTLGVTGLGSSTSFLTRHLMAQQGLGPGEYTMLPVGAEHSFVSALRSGRIDAGMTTDPTATRLIRNKEARMLLDLRTIESTRAALGGPYPAACLYVQTEWLEAHPELATKLARAFVRTLRYLRSHRAEDIAAHMPPEFRRDRPDVYMQALIAALPTFSDDGRMPADGPATVLRVLSTSNPNARDKHIDLSRTYTNRFVDQAKEGHHHHHH", "soluble on expression in E. coli": "soluble"}
{"sequence": "MSLDVAALVSGGVDSSVVVHRLCEEGYKPAIFYIRIGMEDKDGYIDCPAEEDIELTTLIARRYGCPFEVVDLHKEYWERVVSYTVETVRRGLTPNPDMMCNKLIKFGCFEERWGYQFDRIATGHYATTDLLNGKTYLSTAKDPVKDQTDFLAQINFAQISKLMFPIGHLLKSEVRAIANAAGLPSAKRKDSQGICFLGKIDYNDFIERYLGKKEGRIIELETGKVIGRHQGYWFHTIGQRKGLGLSGGPWFVVKKDIKRNIILVSRGYDPDAQYGKTIEMETFDFITEDAYEAGYWNREDATPVTFKIRHTPEFTRGLLYKGEKGYRLESEERIQGIAPGQYCVIYDEDHHLCYGSGMITKGREGHHHHHH", "soluble on expression in E. coli": "soluble"}
{"sequence": "MSLDVKNLAKWKKVPPVSDRIANTFVALKMLREVDEEHNPVLFSKAHRDNIYTVIDISHESPVYNPASLEAGGIHYQKYPTVSKIPPTPDEVRDFIALVDRLQKEITEKMEKSNTSGAARLRPVVGVHCHYGFNRTGFLIVSYLIERCGFGVQEAIDEFEKRRPPGIRHAHFIDTLFVRYCVGLKRAPTEGHHHHHH", "soluble on expression in E. coli": "not soluble"}
{"sequence": "MSLDYHKQFIGELSQVSYHIIGYGSYYEEALIKYLGESIERYATVIAGDLLSDRIVYASYNELKLLHKVMPLEYLQVFTQEQIALSCDLQMMMCDKMVTENDVLGWVKCPMFFEDAEMYVPAQMLCVGYKTNETVGERRIIPGFSTGTASHKTLEAAMCNSLIEYIQIDSMMLSWYTKKPCPKIIVDDPDIEVILEEARLGKDSLYDIIPIDMTVGEDNPLYTFGIILKNKYDEGPYLLFGVQAGLDPKHALLRGIMEASAISYSYYYNLLYQKASLANIECEEPLFLDLDSNVFYYAHPKDQDHKWKAFEPLISGEVLLSDLEDHSGKDKKEDLKTLLAYAKKVSPNAVFLDITPPEALEKGWYVTRVLMPELLEMCIPAFPFANHPRMRQFGGVTNAFVHPMPEGHHHHHH", "soluble on expression in E. coli": "soluble"}
{"sequence": "MSLEAKKSKAIVFSGVNQIELREVTLKPVSSTDVLVETWWSSISTGTEKMALNGLIPSPPFIFPFIPGYETVGRIVEAGDHVNQGLIGKFAYVAGSFGYEDVNAAFGGASQFIVCPVESLTVLDGIANPQCGIALPLGATALHIVDLAEVKNRKVLVLGQGAVGILAAELAKRFGASLVAVTEPHQRRLDISTSDIKVNPEKQDVSVALAGHEFDVLIDSTGIMSAIETGLRFLKFHGKVIFGGYYQRMNIDYSQAFNKELSFIAARQWAKGDLHRVRELIAAGKINAEKIFTHQCTVDDNLMEAYMQAFSDSDCLKMIIHWKHGNEAGEHFPTCNTANEGHHHHHH", "soluble on expression in E. coli": "soluble"}
{"sequence": "MSLEAVKTIEKEKKDLEQKRIEEATEEEIKPGDHVKMEGGTSVGKVVEVKSGTALVDFGFLRLKVPVSKLRKTKKEEKKETSTFSYKPSSFRTEIDIRGMTVEEAEPVVKKFIDDLMMNGISKGYIIHGKGTGKLASGVWEILRKDKRVVSFRFGTPSEGGTGVTVVEVKEGHHHHHH", "soluble on expression in E. coli": "soluble"}
